From patent US20250186597A1, “TARGETED IMMUNE ACTIVATION WITH IL-18 IMMUNOCYTOKINES” (BRIGHT PEAK THERAPEUTICS AG, priority 2023, published 2025)
Values belong to the substance of their own block, whether it stands above or below them.

Experiments:
[1] = biological target: human IL-18BP-His (human) (UniProt O95998); experiment: AlphaLISA for free IL-18BP; test item titrated (x axis) and pre-incubated with human IL-18BP-His, unbound IL-18BP detected
[2] = biological target: human IL-18BP-His (human) (UniProt O95998); experiment: AlphaLISA detection of free IL-18BP after incubation with the IL-18 analyte
[3] = biological target: human IL-18BP-His (human) (UniProt O95998); experiment: AlphaLISA detection of free IL-18BP
[4] = biological target: recombinant biotinylated human FcRn (human) (UniProt P55899); experiment: AlphaLISA competition at pH 6; test molecule titrated (x axis) against human IgG-conjugated acceptor beads for biotinylated human FcRn on streptavidin donor beads
[5] = biological target: recombinant Human Fc gamma RIIB/CD32b Avi-tag Protein (R&D systems, AVI1875-050, CF) (human) (UniProt P31994); experiment: ELISA; antibody coated, Fc gamma receptor titrated
Chain of recombinant Human Fc gamma RIIB/CD32b Avi-tag Protein (R&D systems, AVI1875-050, CF) (human) (P31994 46-217 limits assumed): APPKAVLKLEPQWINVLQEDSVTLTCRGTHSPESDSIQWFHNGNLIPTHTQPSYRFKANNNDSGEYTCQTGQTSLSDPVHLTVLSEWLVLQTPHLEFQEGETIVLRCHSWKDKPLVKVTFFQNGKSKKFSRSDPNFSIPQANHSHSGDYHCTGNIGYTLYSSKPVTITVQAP

[6] = biological target: recombinant Human Fc gamma RIIA/CD32a (H167) Protein (R&D systems, 9595-CD-050, CF) (human) (UniProt P12318); experiment: ELISA; antibody coated, Fc gamma receptor titrated
Chain of recombinant Human Fc gamma RIIA/CD32a (H167) Protein (R&D systems, 9595-CD-050, CF) (human) (P12318 36-218 limits assumed): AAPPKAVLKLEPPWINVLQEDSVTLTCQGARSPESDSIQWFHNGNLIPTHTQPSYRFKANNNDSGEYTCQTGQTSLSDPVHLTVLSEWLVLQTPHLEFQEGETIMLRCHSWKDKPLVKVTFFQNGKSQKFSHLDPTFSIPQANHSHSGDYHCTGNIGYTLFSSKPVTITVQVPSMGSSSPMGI

[7] = biological target: recombinant Human Fc gamma RI/CD64 Protein (R&D systems, 1257-FC-050, CF) (human) (UniProt P12314); experiment: ELISA; antibody coated, Fc gamma receptor titrated
Chain of recombinant Human Fc gamma RI/CD64 Protein (R&D systems, 1257-FC-050, CF) (human) (P12314 16-288 limits assumed): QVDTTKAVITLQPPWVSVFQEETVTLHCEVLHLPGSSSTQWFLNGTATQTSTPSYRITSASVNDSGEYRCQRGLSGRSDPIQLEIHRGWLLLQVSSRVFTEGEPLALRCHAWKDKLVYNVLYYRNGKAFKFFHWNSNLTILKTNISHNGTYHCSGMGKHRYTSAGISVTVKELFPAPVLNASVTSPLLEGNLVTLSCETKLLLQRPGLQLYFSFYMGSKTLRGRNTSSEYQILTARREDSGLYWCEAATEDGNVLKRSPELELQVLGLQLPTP

[8] = biological target: recombinant Human Fc gamma RIIIA/CD16a Protein (R&D systems, 4325-FC-050; CF) (human) (UniProt P08637); experiment: ELISA; antibody coated, Fc gamma receptor titrated
Chain of recombinant Human Fc gamma RIIIA/CD16a Protein (R&D systems, 4325-FC-050; CF) (human) (P08637 17-208 limits assumed): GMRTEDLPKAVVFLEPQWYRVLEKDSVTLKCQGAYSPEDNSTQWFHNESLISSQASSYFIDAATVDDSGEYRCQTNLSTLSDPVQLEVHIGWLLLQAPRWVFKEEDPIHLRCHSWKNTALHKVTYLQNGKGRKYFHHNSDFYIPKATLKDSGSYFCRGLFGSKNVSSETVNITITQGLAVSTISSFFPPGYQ

[9] = biological target: recombinant biotinylated human FcRn (human) (UniProt P55899); experiment: AlphaLISA competition at pH 6; competitor: human IgG on acceptor beads
[10] = biological target: native IL-18 wild-type (SEQ ID NO: 1) (human) (UniProt Q14116); experiment: cell-based or functional assay

Chain of human IL-18BP-His (human) (O95998 31-194): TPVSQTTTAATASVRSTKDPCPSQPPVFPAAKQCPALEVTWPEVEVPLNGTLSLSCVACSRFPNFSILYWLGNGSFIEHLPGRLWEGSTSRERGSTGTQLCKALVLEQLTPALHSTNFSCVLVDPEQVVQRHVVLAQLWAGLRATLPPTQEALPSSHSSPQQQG

IC50 (read off the curve) [1]: 0.1 nM
Kd [2]: 0.103 nM
Substance: IL-18 polypeptide of SEQ ID NO: 31 (C38A, C76A, C127A) (from UniProt Q14116 37-193) (ligand)

IC50 (read off the curve) [1]: 0.4 nM
Kd [2]: 0.411 nM
Kd [3]: 0.67 nM
Substance: native IL-18 wild-type (SEQ ID NO: 1) (from UniProt Q14116 37-193) (ligand)

IC50 (read off the curve) [4]: 5 nM
Kd [5]: 2630 nM
Kd [6]: 1350 nM
Kd [7]: 0.315 nM
Kd [8]: 1710 nM
Kd [9]: 6 nM
Substance: LZM-009 (antibody)

Kd [3]: 0.04 nM
Substance: IL-18 polypeptide C167 (V11I, C38A, C76A, S105I, C127A) (from UniProt Q14116 37-193) (ligand)

Kd [3]: 373 nM
Substance: IL-18 polypeptide C146 (SEQ ID NO: 68; V11I, C38A, M51G, K53A, C76A, C127A) (from UniProt Q14116 37-193) (ligand)

Kd [3]: 0.05 nM
Substance: IL-18 polypeptide C163 (V11I, C38A, C76A, Q103K, C127A) (from UniProt Q14116 37-193) (ligand)

Kd [3]: 514 nM
Substance: IL-18 polypeptide of SEQ ID NO: 36 (K53A) (from UniProt Q14116 37-193) (ligand)

Kd [3]: 436 nM
Substance: IL-18 polypeptide of SEQ ID NO: 56 (E6K, K53A, C38S, C76S, C127S) (from UniProt Q14116 37-193) (ligand)

Kd [3]: 500 nM
Substance: IL-18 polypeptide of SEQ ID NO: 41 (K53A, S55A) (from UniProt Q14116 37-193) (ligand)

IC50 of IL-18BP-mediated inhibition of IFNγ secretion, PD-1negative parental NK-92 cells [10]: 2.97 nM
Substance: His-tag human IL-18 binding protein isoform a (IL-18BPa; SinoBiologicals #10357-H08H) (from UniProt O95998 31-194)

Kd [3]: 0.08 nM
Substance: IL-18 polypeptide C164 (V11I, C38A, S55H, C76A, C127A) (from UniProt Q14116 37-193) (ligand)

Kd [3]: 0.64 nM
Substance: IL-18 polypeptide C149 (V11I, E31A, C38A, K53A, C76A, C127A) (from UniProt Q14116 37-193) (ligand)
